Test results from patent US20250346665A1 (BEIJING IMMUNOAH PHARMATECH, published 2025).
Like-named read-outs stand apart in the source and are kept apart here. One block for each binder: values may come before it.

Key:
[1] = biological target: T1, Human CLDN18.2, NP_001002026.1, claudin-18 isoform 2 [Homo sapiens] (human); assay: flow cytometry titration on 293T-18.2 cells
Method: Each well was washed twice with 400 μl FACS buffer. The secondary antibody of PE anti-mouse IgG Fc was added, and incubated for 1 hour before detection by flow cytometry.

[2] = biological target: T1, Human CLDN18.2, NP_001002026.1, …; assay: flow cytometry on 293T-18.2 cells
[3] = biological target: T1, Human CLDN18.2, NP_001002026.1, …; assay: flow cytometry titration on 293T-18.2 cells; remark: listed apart in the source
Method: (§1) 10 μL of each diluted antibody was added to 100 μL of the above cell samples, mixed and incubated at room temperature for 1 hour.
Each well was washed twice with 400 μl FACS buffer. The secondary antibody of the PE anti-human IgG Fc (Biolegend, Cat409304) was added and incubated for 1 hour before detection by flow cytometry.

[4] = biological target: T1, Human CLDN18.2, NP_001002026.1, …; assay: cell-based or functional assay
[5] = biological target: T1, Human CLDN18.2, NP_001002026.1, …; assay: flow cytometry titration on 293T-18.2 cells; remark: listed apart in the source
Method: as §1
Each well was washed twice with 400 μl FACS buffer. The secondary antibody of the PE anti-human IgG Fc was added and incubated for 1 hour before detection by flow cytometry.

T1 sequence (chain, as listed by the source limits assumed): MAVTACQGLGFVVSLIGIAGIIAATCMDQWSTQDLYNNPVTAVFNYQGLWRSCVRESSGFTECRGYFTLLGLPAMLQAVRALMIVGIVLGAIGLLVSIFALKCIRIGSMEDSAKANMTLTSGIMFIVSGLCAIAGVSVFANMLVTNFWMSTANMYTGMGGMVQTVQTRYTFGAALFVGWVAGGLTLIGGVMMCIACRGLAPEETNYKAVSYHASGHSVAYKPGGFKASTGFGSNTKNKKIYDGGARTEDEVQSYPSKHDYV

- EC50 [1]: 0.385 µg/mL
- EC50 strength as a multiple of control antibody MAb362 [2]: ~3 fold
B1: murine anti-CLDN18.2 monoclonal antibody secreted by the hybridoma 7D10-1 (antibody, V domains shown)
VH: QVQLKESGGNLVQPGGSRKLSCAASGFSFSSFGMHWVRQAPEKGLEWVAYISSGSRTIYYADTVKGRFTISRDNAKNTLFLQMTSLRSEDTAMYYCTRYYYGNSFDYWGQGTTLTVSS
VL: DIVMTQAPSSLTVTTGEKVTLACKSSQSLFNTGNQKNYLTWYQQKPGQPPKLLIYWASTRESGVPDRFTGSGSGTAFTLTISSVQAEDLAVYYCQNNYNFPLTFGAGTKLELK
notes: Murine hybridoma antibody detected with PE anti-mouse IgG Fc; also called murine anti-CLDN18.2 antibody

- EC50 [3]: 0.4 µg/mL
- EC50 strength as a multiple of control antibody MAb362 [2]: ~10 fold
B2: 7D10-1 chimeric antibody (antibody, human IgG1, kappa, L234A L235A, V domains shown)
VH: B1 VH
VL: DIVMTQAPSSLTVTTGEKVTLACKSSQSLFNTGNQKNYLTWYQQKPGQPPKLLIYWASTRESGVPDRFTGSGSGTAFTLTISSVQAEDLAVYYCQNNYNFPLTFGAGTKLELKR
notes: Murine variable regions with a human constant region; also called anti-CLDN18.2 chimeric antibody

- EC50 of ADCC [4]: 180 nM
- EC50 strength as a multiple of control antibody MAb362 [2]: ~4 fold
- EC50 [5]: 0.909 µg/mL
B3: 7D10-1 humanized antibody (antibody, V domains shown)
VH: QVQLVESGGGLVKPGGSLRLSCAASGFSFSSFGMHWVRQAPGKGLEWVAYISSGSRTIYYADTVKGRFTISRDNAKNSLYLQMNSLRAEDTAVYYCTRYYYGNSFDYWGQGTTVTVSS
VL: DIQMTQSPSSLSASVGDRVTITCKSSQSLFNTGNQKNYLTWYQQKPGKAPKLLIYWASTRESGVPSRFSGSGSGTDFTLTISSLQPEDFATYYCQNNYNFPLTFGQGTRLEIK
notes: Cloned into the same pQKX1/pQKX2 vectors as the chimeric antibody and detected with PE anti-human IgG Fc; a human IgG1 isotype control was used in the ADCC assay; also called anti-CLDN18.2 humanized antibody
